B1: Cj0169, superoxide dismutase (Fe; SodB) (enzyme)
chain: MFELRKLPYDTNAFGDFLSAETFSYHHGKHHNTYVTNLNNLIKDTEFAGKDLVSIIKTSNGGVFNNAAQVYNHDFYFDCIKPSTGCGCGGSCQSIDANLQAALEKEFGSLENFKAEFIKGATGVFGSGWFWLVYNTKNQKLEFVGTSNAATPITEDKVPLLVVDVWEHAYYVDHRNARPAYLEKFYAHINWEFVAKAYEWALKEGMGSVSFYANELHPVK
B2: Cj0638c, inorganic pyrophosphatase (Ppa) (enzyme)
chain: MNLSKIKIGDIPNKINAVIEIPYGSNIKYEIDKDSGAIMVDRVMASAIFYPANYGFIANTLADDGDPVDILVLNEYPIQAGAVIPCRLIGVLIMEDESGMDEKLLAVPNSKIDARYDNIKTYTDLPQATLNKIKNFFETYKILEPNKWVKVQDFKDEKAAIEILEKAIKNYK
B3: Cj0332c, nucleoside diphosphate kinase (Ndk) (enzyme)
chain: MEKTLSIIKPDAVKKGVIGKILDRFESNGLRIAAMKKVQLSKEQAENFYAVHKERPFFKDLVEFMISGPVVVSILEGEGAVLKNRDLMGATNPKEAKAGTIRADFAESIDANAVHGSDSLENAKIEIEFFFKPNEIC

Target: T1, soybean agglutinin (SBA)-alkaline phosphatase conjugate (soybean, UniProt P05046 33-285, conjugated to alkaline phosphatase (EY Laboratories))
T1 construct: Lectin; Alkaline phosphatase part not described; also called GalNAc-specific lectin; SBA lectin
Experiment: Western blot of 2D gel probed with SBA-alkaline phosphatase conjugate

T1 sequence (P05046 33-285 limits assumed): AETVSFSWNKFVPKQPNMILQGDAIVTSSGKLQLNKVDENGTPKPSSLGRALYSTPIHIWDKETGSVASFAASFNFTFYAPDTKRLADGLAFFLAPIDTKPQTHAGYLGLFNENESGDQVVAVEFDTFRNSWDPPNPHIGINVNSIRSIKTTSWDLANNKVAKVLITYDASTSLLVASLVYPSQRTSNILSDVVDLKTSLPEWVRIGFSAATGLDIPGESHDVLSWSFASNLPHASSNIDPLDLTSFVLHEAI

Binder	binding result
B1	no binding (tested: 10 µg/mL)
B2	no binding (tested: 10 µg/mL)
B3	no binding (tested: 10 µg/mL)
